Paper PMC11321638 (Advanced Science, 2024)

Tested on: HT22 nerve cell
Assay type: cell-based, Mouse

How did the “induction of apoptosis in HT22 cells” value turn out when Botulinum Toxin Type A [Botox] was run?
The value was “dose‐dependent induction of apoptosis”.

And the “necrocytosis of HT22 cells” value?
Its value is “neither RSI prion nor Botox induced necrocytosis”.
